Measurements from publication PMC9597087.

Molecular target: microtubules (human (endogenous in U2-OS)) (UniProt Q71U36)
Assay: FRAP (fluorescence recovery after photobleaching); living U2-OS cells 48h after transfection, interphase, no STLC; 1.5 um^2 areas bleached, spinning disk confocal; traces analysed with easyFRAP, normalised to pre-bleaching intensity

“GFP-tagged Eg5(T107N) (from UniProt P52732 1-1056) (natural protein)” was tested, and the mobility fraction (FRAP) was 0.06.
